First the molecules themselves.
B1: Solute carrier family 2, facilitated glucose transporter member 9 (Homo sapiens), Q9NRM0-2 (parent)
chain: MKLSKKDRGEDEESDSAKKKLDWSCSLLVASLAGAFGSSFLYGYNLSVVNAPTPYIKAFYNESWERRHGRPIDPDTLTLLWSVTVSIFAIGGLVGTLIVKMIGKVLGRKHTLLANNGFAISAALLMACSLQAGAFEMLIVGRFIMGIDGGVALSVLPMYLSEISPKEIRGSLGQVTAIFICIGVFTGQLLGLPELLGKESTWPYLFGVIVVPAVVQLLSLPFLPDSPRYLLLEKHNEARAVKAFQTFLGKADVSQEVEEVLAESRVQRSIRLVSVLELLRAPYVRWQVVTVIVTMACYQLCGLNAIWFYTNSIFGKAGIPPAKIPYVTLSTGGIETLAAVFSGLVIEHLGRRPLLIGGFGLMGLFFGTLTITLTLQDHAPWVPYLSIVGILAIIASFCSGPGGIPFILTGEFFQQSQRPAAFIIAGTVNWLSNFAVGLLFPFIQKSLDTYCFLVFATICITGAIYLYFVLPETKNRTYAEISQAFSKRNKAYPPEEKIDSAVTDGKINGRP
B2: Solute carrier family 2, facilitated glucose transporter member 9 (Homo sapiens), Q9NRM0-1 (parent)
chain: MARKQNRNSKELGLVPLTDDTSHAGPPGPGRALLECDHLRSGVPGGRRRKDWSCSLLVASLAGAFGSSFLYGYNLSVVNAPTPYIKAFYNESWERRHGRPIDPDTLTLLWSVTVSIFAIGGLVGTLIVKMIGKVLGRKHTLLANNGFAISAALLMACSLQAGAFEMLIVGRFIMGIDGGVALSVLPMYLSEISPKEIRGSLGQVTAIFICIGVFTGQLLGLPELLGKESTWPYLFGVIVVPAVVQLLSLPFLPDSPRYLLLEKHNEARAVKAFQTFLGKADVSQEVEEVLAESRVQRSIRLVSVLELLRAPYVRWQVVTVIVTMACYQLCGLNAIWFYTNSIFGKAGIPPAKIPYVTLSTGGIETLAAVFSGLVIEHLGRRPLLIGGFGLMGLFFGTLTITLTLQDHAPWVPYLSIVGILAIIASFCSGPGGIPFILTGEFFQQSQRPAAFIIAGTVNWLSNFAVGLLFPFIQKSLDTYCFLVFATICITGAIYLYFVLPETKNRTYAEISQAFSKRNKAYPPEEKIDSAVTDGKINGRP

The variants in the first assay derive from B1. As to conditions: with itm2b_human ITM2B.
For MKLSKKDRGEDEESDSAKKKLDWSCSLLVASLAGAFGSSFLYGYNLSVVNAPTPYIKAFYQESWERRHGRPIDPDTLTLLWSVTVSIFAIGGLVGTLIVKMIGKVLGRKHTLLANNGFAISAALLMACSLQAGAFEMLIVGRFIMGIDGGVALSVLPMYLSEISPKEIRGSLGQVTAIFICIGVFTGQLLGLPELLGKESTWPYLFGVIVVPAVVQLLSLPFLPDSPRYLLLEKHNEARAVKAFQTFLGKADVSQEVEEVLAESRVQRSIRLVSVLELLRAPYVRWQVVTVIVTMACYQLCGLNAIWFYTNSIFGKAGIPPAKIPYVTLSTGGIETLAAVFSGLVIEHLGRRPLLIGGFGLMGLFFGTLTITLTLQDHAPWVPYLSIVGILAIIASFCSGPGGIPFILTGEFFQQSQRPAAFIIAGTVNWLSNFAVGLLFPFIQKSLDTYCFLVFATICITGAIYLYFVLPETKNRTYAEISQAFSKRNKAYPPEEKIDSAVTDGKINGRP [N61Q], the “effect of a mutation on the interaction” value is recorded as “with no effect”.

The variants in another assay derive from B1. To be noted: with itm2b_human ITM2B. The source holds these as a separate data set.
Regarding MKLSKKDRGEDEESDSAKKKLDWSCSLLVASLAGAFGSSFLYGYNLSVVNAPTPYIKAFYQESWERRHGRPIDPDTLTLLWSVTVSIFAIGGLVGTLIVKMIGKVLGRKHTLLANNGFAISAALLMACSLQAGAFEMLIVGRFIMGIDGGVALSVLPMYLSEISPKEIRGSLGQVTAIFICIGVFTGQLLGLPELLGKESTWPYLFGVIVVPAVVQLLSLPFLPDSPRYLLLEKHNEARAVKAFQTFLGKADVSQEVEEVLAESRVQRSIRLVSVLELLRAPYVRWQVVTVIVTMACYQLCGLNAIWFYTNSIFGKAGIPPAKIPYVTLSTGGIETLAAVFSGLVIEHLGRRPLLIGGFGLMGLFFGTLTITLTLQDHAPWVPYLSIVGILAIIASFCSGPGGIPFILTGEFFQQSQRPAAFIIAGTVNWLSNFAVGLLFPFIQKSLDTYCFLVFATICITGAIYLYFVLPETKNRTYAEISQAFSKRNKAYPPEEKIDSAVTDGKINGRP [N61Q], the “effect of a mutation on the interaction” value is “disrupting interaction strength”.

In a further assay the parent is B2. To be noted: with itm2b_human ITM2B.
For the variant MARKQNRNSKELGLVPLTDDTSHAGPPGPGRALLECDHLRSGVPGGRRRKDWSCSLLVASLAGAFGSSFLYGYNLSVVNAPTPYIKAFYQESWERRHGRPIDPDTLTLLWSVTVSIFAIGGLVGTLIVKMIGKVLGRKHTLLANNGFAISAALLMACSLQAGAFEMLIVGRFIMGIDGGVALSVLPMYLSEISPKEIRGSLGQVTAIFICIGVFTGQLLGLPELLGKESTWPYLFGVIVVPAVVQLLSLPFLPDSPRYLLLEKHNEARAVKAFQTFLGKADVSQEVEEVLAESRVQRSIRLVSVLELLRAPYVRWQVVTVIVTMACYQLCGLNAIWFYTNSIFGKAGIPPAKIPYVTLSTGGIETLAAVFSGLVIEHLGRRPLLIGGFGLMGLFFGTLTITLTLQDHAPWVPYLSIVGILAIIASFCSGPGGIPFILTGEFFQQSQRPAAFIIAGTVNWLSNFAVGLLFPFIQKSLDTYCFLVFATICITGAIYLYFVLPETKNRTYAEISQAFSKRNKAYPPEEKIDSAVTDGKINGRP [N90Q], the “effect of a mutation on the interaction” value is “with no effect”.

The values are drawn from IntAct's records for PubMed 31695625.
